Biological target: T1, GSDMD (Mus musculus, UniProt Q9D8T2)
T1 chain: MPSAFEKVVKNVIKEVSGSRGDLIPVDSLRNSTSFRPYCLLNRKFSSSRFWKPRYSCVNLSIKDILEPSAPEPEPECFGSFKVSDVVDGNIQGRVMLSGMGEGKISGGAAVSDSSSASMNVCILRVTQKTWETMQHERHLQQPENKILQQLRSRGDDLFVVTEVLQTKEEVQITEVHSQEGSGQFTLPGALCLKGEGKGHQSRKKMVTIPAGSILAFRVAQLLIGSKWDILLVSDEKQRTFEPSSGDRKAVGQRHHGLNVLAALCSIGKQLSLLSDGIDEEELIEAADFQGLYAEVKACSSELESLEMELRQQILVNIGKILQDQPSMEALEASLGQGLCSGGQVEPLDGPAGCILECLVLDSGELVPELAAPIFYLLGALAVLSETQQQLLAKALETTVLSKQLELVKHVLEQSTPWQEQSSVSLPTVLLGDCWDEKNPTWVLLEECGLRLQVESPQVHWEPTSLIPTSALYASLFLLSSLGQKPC
Assay: SPR

Kd: 487 nM
B1: CIRP (protein)
chain: MASDEGKLFVGGLSFDTNEQALEQVFSKYGQISEVVVVKDRETQRSRGFGFVTFENIDDAKDAMMAMNGKSVDGRQIRVDQAGKSSDNRSRGYRGGSAGGRGFFRGGRSRGRGFSRGGGDRGYGGGRFESRSGGYGGSRDYYASRSQGGSYGYRSSGGSYRDSYDSYATHNE
